The values below come from article PMC6275495.

Bounds are passed on as bounds.

The target in this assay is PDGFRs (PDGFRα and PDGFRβ subunit dimers) (mouse (endogenous in MEFs)) (UniProt P26618). Briefly: affinity purification with mass spectrometry.
UniProt P26618, sequence (P26618 25-1089, chain 1 of 2): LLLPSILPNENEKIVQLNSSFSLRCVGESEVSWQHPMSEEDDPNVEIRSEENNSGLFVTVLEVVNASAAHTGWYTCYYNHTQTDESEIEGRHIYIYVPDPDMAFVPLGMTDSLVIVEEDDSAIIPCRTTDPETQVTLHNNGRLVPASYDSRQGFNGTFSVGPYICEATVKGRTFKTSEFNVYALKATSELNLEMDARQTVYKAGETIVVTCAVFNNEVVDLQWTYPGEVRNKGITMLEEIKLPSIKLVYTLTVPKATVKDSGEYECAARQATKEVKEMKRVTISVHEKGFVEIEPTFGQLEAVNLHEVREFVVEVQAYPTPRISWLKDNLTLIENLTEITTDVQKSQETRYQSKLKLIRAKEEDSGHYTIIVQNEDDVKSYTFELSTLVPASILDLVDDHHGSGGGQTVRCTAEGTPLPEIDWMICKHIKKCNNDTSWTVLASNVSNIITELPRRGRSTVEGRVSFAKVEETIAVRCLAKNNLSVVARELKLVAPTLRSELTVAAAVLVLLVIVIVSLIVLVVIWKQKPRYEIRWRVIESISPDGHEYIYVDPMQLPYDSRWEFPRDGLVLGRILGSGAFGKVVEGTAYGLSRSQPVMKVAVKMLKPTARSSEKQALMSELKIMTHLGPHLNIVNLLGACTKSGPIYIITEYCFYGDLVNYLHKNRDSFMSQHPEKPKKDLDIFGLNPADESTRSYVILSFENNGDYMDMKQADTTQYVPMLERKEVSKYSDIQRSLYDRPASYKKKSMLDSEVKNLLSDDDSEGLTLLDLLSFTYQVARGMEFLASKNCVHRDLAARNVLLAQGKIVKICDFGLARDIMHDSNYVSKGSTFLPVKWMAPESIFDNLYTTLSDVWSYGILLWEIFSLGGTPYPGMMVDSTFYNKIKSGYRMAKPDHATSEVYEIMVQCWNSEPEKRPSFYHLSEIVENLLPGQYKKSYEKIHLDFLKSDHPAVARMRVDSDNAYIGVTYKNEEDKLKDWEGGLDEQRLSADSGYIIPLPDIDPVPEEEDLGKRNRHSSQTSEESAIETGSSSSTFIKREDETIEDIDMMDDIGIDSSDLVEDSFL
UniProt P26618, sequence (P05622 32-1098, chain 2 of 2, further chain): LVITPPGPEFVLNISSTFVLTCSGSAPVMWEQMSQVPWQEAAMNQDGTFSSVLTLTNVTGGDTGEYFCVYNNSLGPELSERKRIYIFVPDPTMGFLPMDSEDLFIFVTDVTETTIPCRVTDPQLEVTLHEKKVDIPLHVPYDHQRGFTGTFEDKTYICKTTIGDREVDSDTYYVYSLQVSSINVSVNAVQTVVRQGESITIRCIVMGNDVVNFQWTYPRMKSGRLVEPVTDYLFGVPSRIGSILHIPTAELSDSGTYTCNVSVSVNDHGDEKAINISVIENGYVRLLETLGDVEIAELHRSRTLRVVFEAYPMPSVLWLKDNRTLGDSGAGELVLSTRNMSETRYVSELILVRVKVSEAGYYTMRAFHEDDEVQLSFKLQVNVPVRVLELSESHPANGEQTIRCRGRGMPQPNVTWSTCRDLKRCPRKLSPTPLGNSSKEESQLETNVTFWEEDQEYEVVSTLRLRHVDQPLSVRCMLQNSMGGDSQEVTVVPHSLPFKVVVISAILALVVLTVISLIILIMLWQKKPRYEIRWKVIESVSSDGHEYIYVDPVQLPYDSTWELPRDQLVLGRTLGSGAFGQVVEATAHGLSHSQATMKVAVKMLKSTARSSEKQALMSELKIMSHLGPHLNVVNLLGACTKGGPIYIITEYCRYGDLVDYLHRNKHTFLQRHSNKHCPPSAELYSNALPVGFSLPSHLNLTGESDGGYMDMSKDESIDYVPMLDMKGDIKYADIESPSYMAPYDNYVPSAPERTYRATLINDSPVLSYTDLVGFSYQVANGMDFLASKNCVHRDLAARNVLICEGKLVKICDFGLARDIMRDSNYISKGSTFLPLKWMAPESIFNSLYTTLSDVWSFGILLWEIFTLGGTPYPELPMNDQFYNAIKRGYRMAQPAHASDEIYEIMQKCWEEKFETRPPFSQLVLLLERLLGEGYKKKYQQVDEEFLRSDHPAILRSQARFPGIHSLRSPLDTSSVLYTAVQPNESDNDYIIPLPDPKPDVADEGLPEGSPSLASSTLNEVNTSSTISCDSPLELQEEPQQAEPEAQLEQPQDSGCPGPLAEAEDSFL

Substance total p85 returned a percent of total associated with anti-PDGFR-IPs of over 80%.
